Measurements as given in patent US11397178B2, “Method of predicting progression of idiopathic pulmonary fibrosis and monitoring of therapeutic efficacy” (Cedars-Sinai Medical Center, priority 2016, dated 2022).
Entries after “also recorded” stand apart in the source; their conditions may differ.

Assays:
[1] = tested on: murine IL-2, IL-10, IL-12-p70, and TNFα; assay: Bioplex analysis of mouse cytokines in BAL of humanized NSG mice; assay type: in vivo; conditions: days 0 to 35 or days 35 to 63
Method: (A-E) Murine IL-2 (A), IL-10 (B), IL12-p70 (C), IFNγ, and TNFα in the BAL from non-humanized and humanized NSG mice treated with KB004 or KB243 from days 0 to 35, or from days 35 to 63 after IPF cell injection. Mouse cytokines were measured using Bioplex and data shown are mean±sem; n=5-10/group. ****p≤0.0001
Lungs in non-humanized and humanized NSG mice were washed using 1 ml of saline solution, and the resulting BAL was centrifuged to remove cells and the supernatants were stored at −80° C. until analysis. Mouse cytokines in the BAL were measured using predesigned Bioplex assays (Bio-Rad) as recommended by the manufacturer, […]

EphA3 expressing cells = assay: IPF explant cell challenged NOD/SCID mice treated with anti-EphA3 antibody; assay type: in vivo; conditions: listed as afucosylated anti-EphA3 antibody
Source text: IHC analysis indicated the presence of these cells near honeycombing cysts, in the interstitium and their expansion in IPF lung biopsies and explants relative to normal lungs.

CCR10+ cells = assay: Humanized NSG-GFP mice: KB004 / KB243 treatment (GFP IHC, flow cytometry); assay type: in vivo, human IPF cells in NSG-GFP mice; conditions: 5 mg/kg i.p. twice a week for 5 weeks, day 35
Method: NSG-GFP mice. (A) IPF cells were injected intravenously into NSG-GFP mice, and 2 hours later groups of mice received either 5 mg/kg of KB004 (an afucosylated anti-EphA3 mAb) or KB243 (an isotype control) via intraperitoneal injection. Both groups of mice were injected twice a week with the antibodies for 5 weeks after which lungs and spleen were collected for histological and/or flow cytometric analysis. (B-C) Depicted are representative images of GFP-stained NSG mouse lung (red indicates the presence of transgenic GFP mouse cells) at day 35 after IPF lung injection in both the KB243 (B) and KB004 (C) treatment groups. (D) Flow cytometric dot plots depicting GFP^− staining for human-CD45, CCR10 and/or EpCAM proteins. Representative dot plots for (from left to right) GFP^− cells expressing CD45, CD45, and CCR10 or CCR10 alone in humanized NSG-GFP mice treated either with KB243 (top) or KB004 (bottom) antibodies are shown. (E-F) The average number of GFP^− CD45^+ CCR10^+ (E) and GFP^− Lin^− CCR10^+ (F) cells in non-humanized and humanized NSG mice treated with either KB243 or KB004. Data shown are mean±sem n=4-5/group. *p≤0.05
Six to eight-week old, female, pathogen free NOD Cg-Prkdc^SCID IL2rg^Tm1wil Szi (NSG) or NOD.Cg-Prkdc^SCID IL2rg^tm1Wil Tg(CAG-EGFP) 10sb/SzJ (NSG-GFP) were purchased from Jackson Laboratories and housed in Cedars-Sinai Medical Center's high isolation animal rooms. […] All NSG groups were monitored daily and mice were sacrificed if there is evidence for morbidity such as weight loss of more than 20%, loss of fur, paralysis and/or lack of responsiveness when handled.
Murine lung cellular suspensions were generated using a mouse lung dissociation kit, C-tubes, and a GentleMacs dissociator (Miltenyi Biotech). […] Unstained, isotype controls, fluorescent minus one controls and staining in non-humanized murine lung and spleen suspensions were utilized to gate out any non-specific antibody binding and background fluorescence. […]

B1: KB004: afucosylated anti-EphA3 mAb supplied by Kalobios; targets EphA3+ cells via antibody-dependent cell-mediated cytotoxicity (ADCC) (antibody, chains of the INN, looked up, V domains shown)
VH: QVQLVQSGAEVKKPGASVKVSCKASGYTFTGYWMNWVRQAPGQGLEWMGDIYPGSGNTNYDEKFQGRVTMTRDTSISTAYMELSRLRSDDTAVYYCARGGYYEDFDSWGQGTTVTVSS
VL: DIQMTQSPSFLSASVGDRVTITCRASQGIISYLAWYQQKPEKAPKRLIYAASSLQSGVPSRFSGSGSGTEFTLTISSLQPEDFATYYCGQYANYPYTFGQGTKLEIK
inflammation in the mouse lung (BAL murine cytokines) [1]: neither KB243 or KB004 treatments in humanized NSG mice evoked inflammation
fibrotic response / lung remodeling (EphA3 expressing cells): ameliorated the fibrotic response; also recorded: ameliorated lung remodeling
GFP cells in lung by IHC, KB004 compared with KB243 (CCR10+ cells): fewer GFP cells
number of CD45+ CCR10+ cells compared with KB243 group (CCR10+ cells; flow cytometry): significantly reduced
number of Lin- CCR10+ cells compared with KB243 group (CCR10+ cells; flow cytometry): significantly reduced
